B1: PTPRD (parent)
chain: LTKLREMGREKCHQYWPAERSARY

This is an account of results in the supplement of paper PMC10567573.
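Also: lentivirally expressed fusions sorted by FACS into six bins by GFP to DsRed ratio, PSI derived from sequencing read proportions per bin multiplied by bin number.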

This data set covers variants of B1. Kind of data set: protein stability index of a GFP-peptide fusion (GPS, HEK-293T) (PSI 1-6); higher = more stable. Particulars: c terminus: a fixed tail appended.
As to LTKLREMGREKCHQYWPAEGSARY [R20G], the protein stability index turned out to be 2.88. LTKLREMGREKCHQYWPAETSARY [R20T]: the protein stability index stood at 2.66. Under LTKLREMGREKCHQYWPAEKSARY [R20K] stands 2.28; under LTKLREMGREKCHQYWPAEESARY [R20E], 2.69. Regarding LTKLREMGREKCHQYWPAELSARY [R20L], the protein stability index was determined as 2.34. Consider LTKLREMGREKCHQYWPAENSARY [R20N], for which the protein stability index amounted to 2.62. In the case of LTKLREMGREKCHQYWPAEHSARY [R20H], the protein stability index is 2.2.

Regarding LTKLREMGREKCHQYWPAEISARY [R20I], the protein stability index was 1.86. For LTKLREMGREKCHQYWPAEWSARY [R20W], the protein stability index is 1.51.

For LTKLREMGREKCHQYWPAEMSARY [R20M], the protein stability index stood at 2.25. Under LTKLREMGREKCHQYWPAEYSARY [R20Y] stands 2.33; under LTKLREMGREKCHQYWPAEASARY [R20A], 2.05. As to LTKLREMGREKCHQYWPAECSARY [R20C], the protein stability index is 2.42. LTKLREMGREKCHQYWPAESSARY [R20S]: the protein stability index was 2.3. Turning to LTKLREMGREKCHQYWPAEPSARY [R20P], the protein stability index worked out at 2.77.

As for LTKLREMGREKCHQYWPAEQSARY [R20Q], the protein stability index was 2.38. LTKLREMGREKCHQYWPAEVSARY [R20V]: the protein stability index was 2.03. Take LTKLREMGREKCHQYWPAEFSARY [R20F]: the protein stability index turned out to be 1.93. As for LTKLREMGREKCHQYWPAEDSARY [R20D], the protein stability index came out at 2.92. On to LTKLREMGREKCHQYWPAERSAKY [R23K], for which the protein stability index came out at 2.49.

With LTKLREMGREKCHQYWPAERSAMY [R23M], the protein stability index was found to be 1.69. As for LTKLREMGREKCHQYWPAERSAQY [R23Q], the protein stability index turned out to be 1.74. As for LTKLREMGREKCHQYWPAERSANY [R23N], the protein stability index worked out at 2.24. LTKLREMGREKCHQYWPAERSAGY [R23G]: the protein stability index was found to be 2.38. On to LTKLREMGREKCHQYWPAERSAYY [R23Y], for which the protein stability index worked out at 1.6. LTKLREMGREKCHQYWPAERSACY [R23C]: the protein stability index was found to be 2.06. For LTKLREMGREKCHQYWPAERSAIY [R23I], the protein stability index was 1.99. Take LTKLREMGREKCHQYWPAERSAAY [R23A]: the protein stability index is 2.42. Turning to LTKLREMGREKCHQYWPAERSALY [R23L], the protein stability index worked out at 2.09. With LTKLREMGREKCHQYWPAERSASY [R23S], the protein stability index was 1.96. In the case of LTKLREMGREKCHQYWPAERSAEY [R23E], the protein stability index came out at 2.67. Consider LTKLREMGREKCHQYWPAERSADY [R23D], for which the protein stability index amounted to 3.39. With LTKLREMGREKCHQYWPAERSAHY [R23H], the protein stability index was 2.26. As for LTKLREMGREKCHQYWPAERSAFY [R23F], the protein stability index came out at 1.79.

Regarding LTKLREMGREKCHQYWPAERSAWY [R23W], the protein stability index worked out at 1.68. In the case of LTKLREMGREKCHQYWPAERSATY [R23T], the protein stability index was determined as 2.4. In the case of LTKLREMGREKCHQYWPAERSAPY [R23P], the protein stability index is 3.02. In the case of LTKLREMGREKCHQYWPAERSAVY [R23V], the protein stability index amounted to 1.85.

As for LTKLREMGREKCHQYWPAERSARF [Y24F], the protein stability index was 2.21.

Consider LTKLREMGREKCHQYWPAERSARC [Y24C], for which the protein stability index turned out to be 2.65.

LTKLREMGREKCHQYWPAERSARG [Y24G]: the protein stability index came out at 2.67. Under LTKLREMGREKCHQYWPAERSARE [Y24E] stands 3.1. As to LTKLREMGREKCHQYWPAERSARA [Y24A], the protein stability index is 2.59. As to LTKLREMGREKCHQYWPAERSARD [Y24D], the protein stability index is 3.55.

Turning to LTKLREMGREKCHQYWPAERPARY [S21P], the protein stability index is 2.24. For the variant LTKLREMGREKCHQYWPAERNARY [S21N], the protein stability index amounted to 2.17. As for LTKLREMGREKCHQYWPAERHARY [S21H], the protein stability index came to 1.91. On to LTKLREMGREKCHQYWPAEREARY [S21E], for which the protein stability index worked out at 2.15. Then LTKLREMGREKCHQYWPAERMARY [S21M], with 1.96. Regarding LTKLREMGREKCHQYWPAERVARY [S21V], the protein stability index is 2.17.

Regarding LTKLREMGREKCHQYWPAERQARY [S21Q], the protein stability index was found to be 2.08. As for LTKLREMGREKCHQYWPAERWARY [S21W], the protein stability index was determined as 1.94. Then LTKLREMGREKCHQYWPAERTARY [S21T], with 2.77; and LTKLREMGREKCHQYWPAERDARY [S21D], with 2.83; and LTKLREMGREKCHQYWPAERAARY [S21A], with 2.58. As for LTKLREMGREKCHQYWPAERRARY [S21R], the protein stability index is 2.16. On to LTKLREMGREKCHQYWPAERFARY [S21F], for which the protein stability index was determined as 2. Then LTKLREMGREKCHQYWPAERCARY [S21C], with 1.7; and LTKLREMGREKCHQYWPAERYARY [S21Y], with 2.61.

As to LTKLREMGREKCHQYWPAERKARY [S21K], the protein stability index amounted to 2.72. On to LTKLREMGREKCHQYWPAERLARY [S21L], for which the protein stability index came out at 1.96. In the case of LTKLREMGREKCHQYWPAERIARY [S21I], the protein stability index came to 2.99. Turning to LTKLREMGREKCHQYWPAERGARY [S21G], the protein stability index was found to be 1.91. Take LTKLREMGREKCHQYWPAERSIRY [A22I]: the protein stability index came out at 2.08.

For the variant LTKLREMGREKCHQYWPAERSNRY [A22N], the protein stability index was found to be 2.57. For the variant LTKLREMGREKCHQYWPAERSWRY [A22W], the protein stability index was 1.83.

With LTKLREMGREKCHQYWPAERSPRY [A22P], the protein stability index is 2.65.

For LTKLREMGREKCHQYWPAERSKRY [A22K], the protein stability index is 2.65. LTKLREMGREKCHQYWPAERSCRY [A22C]: the protein stability index came to 2.15.

In the case of LTKLREMGREKCHQYWPAERSFRY [A22F], the protein stability index was determined as 1.58. LTKLREMGREKCHQYWPAERSDRY [A22D]: the protein stability index was 2.4. Consider LTKLREMGREKCHQYWPAERSGRY [A22G], for which the protein stability index was determined as 2.33. Under LTKLREMGREKCHQYWPAERSSRY [A22S] stands 2.16; under LTKLREMGREKCHQYWPAERSLRY [A22L], 2.12. Under LTKLREMGREKCHQYWPAERSQRY [A22Q] stands 2.54; under LTKLREMGREKCHQYWPAERSVRY [A22V], 2.64; under LTKLREMGREKCHQYWPAERSTRY [A22T], 3.02. Then LTKLREMGREKCHQYWPAERSRRY [A22R], with 2.42; and LTKLREMGREKCHQYWPAERSHRY [A22H], with 2.21. Take LTKLREMGREKCHQYWPAERSERY [A22E]: the protein stability index was found to be 2.53.

As for LTKLREMGREKCHQYWPAERSMRY [A22M], the protein stability index worked out at 2.33. For the variant LTKLREMGREKCHQYWPAERSYRY [A22Y], the protein stability index stood at 2.23. Then LTKLREMGREKCHQYWPAMRSARY [E19M], with 2.19; and LTKLREMGREKCHQYWPASRSARY [E19S], with 2.29; and LTKLREMGREKCHQYWPATRSARY [E19T], with 2.21. Take LTKLREMGREKCHQYWPAYRSARY [E19Y]: the protein stability index was found to be 1.86. As to LTKLREMGREKCHQYWPANRSARY [E19N], the protein stability index worked out at 2.46. For the variant LTKLREMGREKCHQYWPARRSARY [E19R], the protein stability index stood at 2.56. Turning to LTKLREMGREKCHQYWPALRSARY [E19L], the protein stability index stood at 1.7. Take LTKLREMGREKCHQYWPAWRSARY [E19W]: the protein stability index amounted to 2.15. With LTKLREMGREKCHQYWPAQRSARY [E19Q], the protein stability index came to 2.2.

For the variant LTKLREMGREKCHQYWPAKRSARY [E19K], the protein stability index stood at 2.75. As to LTKLREMGREKCHQYWPAPRSARY [E19P], the protein stability index came out at 2.29. As to LTKLREMGREKCHQYWPAVRSARY [E19V], the protein stability index came to 1.67.
